Source: publication PMC7217667

T1: OsMYB80 (rice, UniProt Q7XQN1 1-372)
T1 sequence: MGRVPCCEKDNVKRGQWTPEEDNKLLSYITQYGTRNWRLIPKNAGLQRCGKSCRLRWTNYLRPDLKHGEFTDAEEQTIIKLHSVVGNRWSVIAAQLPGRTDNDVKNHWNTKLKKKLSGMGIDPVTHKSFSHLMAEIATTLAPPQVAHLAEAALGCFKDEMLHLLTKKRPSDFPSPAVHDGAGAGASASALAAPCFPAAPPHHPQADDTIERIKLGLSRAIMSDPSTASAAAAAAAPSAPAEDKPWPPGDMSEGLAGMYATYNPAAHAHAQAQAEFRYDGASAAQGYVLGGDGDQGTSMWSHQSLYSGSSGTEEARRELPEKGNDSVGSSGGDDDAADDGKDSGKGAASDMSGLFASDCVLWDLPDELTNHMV

B1: LOC_Os07g40830 promoter probe (dsDNA)
DNA 1: CACGCATTCAGGAAACCAGAAGGATC
DNA 2: GATCCTTCTGGTTTCCTGAATGCGTG
B2: LOC_Os01g27170 promoter probe (dsDNA)
DNA 1: CCATCAAAATATATTGACTGTTGGATTTAATG
DNA 2: CATTAAATCCAACAGTCAATATATTTTGATGG
B3: LOC_Os08g20200 promoter probe (dsDNA)
DNA 1: TAAGCCAGCTACAACTGACCAACTC
DNA 2: GAGTTGGTCAGTTGTAGCTGGCTTA
B4: LOC_Os01g04080 promoter probe (dsDNA)
DNA 1: CCAAATAAACGAGAAAACGGCAAAGGCATATGTCATTCAC
DNA 2: GTGAATGACATATGCCTTTGCCGTTTTCTCGTTTATTTGG
B5: LOC_Os08g38810 promoter probe (dsDNA)
DNA 1: CCTGGTCAGTCCTGTTGCACGGCTATATG
DNA 2: CATATAGCCGTGCAACAGGACTGACCAGG
B6: OsMYB80 promoter OsMYB80-1 probe (dsDNA)
DNA 1: TGAACCTAAGGCTGTAAATTTGTTCGGACAAAGGATCATT
DNA 2: AATGATCCTTTGTCCGAACAAATTTACAGCCTTAGGTTCA
B7: OsMYB80 promoter OsMYB80-2 probe (dsDNA)
DNA 1: ACTCATAGCCTGCTATGTTCACAAGGTTTTATATTACTGA
DNA 2: TCAGTAATATAAAACCTTGTGAACATAGCAGGCTATGAGT
B8: LOC_Os06g11135 promoter probe (dsDNA)
DNA 1: TCTACCCTCACCAACCACGCTCCCA
DNA 2: TGGGAGCGTGGTTGGTGAGGGTAGA
B9: LOC_Os04g51990 promoter probe (dsDNA)
DNA 1: CTGCAGGAAATGGAAAACCATCTTATAGAAG
DNA 2: CTTCTATAAGATGGTTTTCCATTTCCTGCAG
B10: LOC_Os03g35920 promoter probe (dsDNA)
DNA 1: GATCTGCATTTGTTAGTTCACCAGCAC
DNA 2: GTGCTGGTGAACTAACAAATGCAGATC
B11: LOC_Os01g50750 promoter probe (dsDNA)
DNA 1: CACCTAAACAAAACCAAACACAAGC
DNA 2: GCTTGTGTTTGGTTTTGTTTAGGTG
B12: LOC_Os09g36730 promoter probe (dsDNA)
DNA 1: ACCTCACTTTACACCTACCTTGAAGGTT
DNA 2: AACCTTCAAGGTAGGTGTAAAGTGAGGT

These binders were tested against T1, OsMYB80 (assay: EMSA).

Binding result, binds:
B1, B2, B3, B4, B5, B6, B7, B8, B9, B10, B11, B12
